{
  "source": "patent US6277383A",
  "about": "“Ryegrass pollen allergen” (University of Melbourne, priority 1995, dated 2001)",
  "key": {"MAb 12.3": {"system": "MAb 12.3", "assay": "Antibody screening of lambda-gt 11 cDNA clones: binding of MAb 12.3", "experimental": "Poly (A+) mRNA isolated from mature rye grass pollen by the phenol method ([…] and Michaels, (1984) Plant Mol. Biol. Rep., 2:24-28) was used to construct a cDNA library in the vector lambda-gt 11. The library was then screened with antibody probes to detect sequences expressing Group I proteins. E. coli […] transfected with 3×10^4 recombinant phages were plated and incubated at 42° C. for 3 h. The plates were overlaid with a dry 132 mm nitrocellulose (NC) filter previously soaked in 10 mm IPTG and transferred to 37° C. After incubation for 3 h the filters were carefully peeled off and incubated in 20 ml per filter of MTBS (10% w/v non-fat milk powder, 50 mm Tris-HCI, pH 7.6, 150 mM Nacl) for 30 min. at room temperature. A second set of NC filters was placed on phage plates and after incubating for 3 h were treated as above. Both sets of NC filters were tested for binding of MAb 40.1 to plaques by the method described in Huynh et al. (1985) In: DNA Cloning, a practical approach, Glover, D. M. (ed.) Vol. 1, pp. 49-78, IRL Press, Oxford, England. The antibody positive plaques were picked, purified, then replated and tested for binding to probes. The positive clones were plaque-purified and tested for IgE binding using sera from grass pollen-allergic subjects. Eighteen clones were selected as encoding proteins recognized by both Lol p I-specific MAbs and IgE antibodies (Table 1). The largest of the cDNA clones, 1.2kb in size, that expressed rye-grass allergenic protein was initially selected for further characterization and sequencing, and designated clone lambda-12R (FIG. 1a)."}, "[1]": {"system": "IgE antibodies of individual serum from 30 grass allergic patients", "assay": "Dot blot screening of recombinant allergens with 30 individual allergic sera", "assay_type": "binding, human", "experimental": "Two microliters of phage stocks of clones 12R, 13R and 19R and a non-recombinant lambda gt 11 were spotted onto a lawn of E. coli Y1090 induced with a nitrocellulose filter saturated with 10 mM IPTG. The protein blots were then probed with individual serum from 30 grass allergic patients. a=Lol p Ib.1, b=Lol p Ia, c=Lol p Ib.2 and d=non-recombinant lambda gt 11. [<]=individuals having higher level of IgE bound to Lol p Ib.2 than Lol p Ia and Lol p Ib.1. [1]=individuals having IgE specific to Lol p Ia. [2]=individuals having IgE specific to Lol p Ib.1 and Lol p Ib.2.\nThe relative allergenicity of Lol p Ia, Lol p Ib.1 and Lol p Ib.2 were tested using 30 individual allergic sera."}, "[2]": {"system": "MAbs 3.2, 12.3, 21.3 and 40.1", "assay": "Recognition of cloned allergen 12R by MAbs (FIG. 1a)", "assay_type": "binding", "conditions": "MAbs 3.2, 12.3, 21.3, 40.1", "experimental": "Poly (A+) mRNA isolated from mature rye grass pollen by the phenol method (Herrin and Michaels, (1984) Plant Mol. Biol. Rep., 2:24-28) was used to construct a cDNA library in the vector lambda-gt 11. The library was then screened with antibody probes to detect sequences expressing Group I proteins. E. coli Y1090 transfected with 3×10^4 recombinant phages were plated and incubated at 42° C. for 3 h. The plates were overlaid with a dry 132 mm nitrocellulose (NC) filter previously soaked in 10 mm IPTG and transferred to 37° C. After incubation for 3 h the filters were carefully peeled off and incubated in 20 ml per filter of MTBS (10% w/v non-fat milk powder, 50 mm Tris-HCI, pH 7.6, 150 mM Nacl) for 30 min. at room temperature. A second set of NC filters was placed on phage plates and after incubating for 3 h were treated as above. Both sets of NC filters were tested for binding of MAb 40.1 to plaques by the method described in Huynh et al. (1985) In: DNA Cloning, a practical approach, Glover, D. M. (ed.) Vol. 1, pp. 49-78, IRL Press, Oxford, England. The antibody positive plaques were picked, purified, then replated and tested for binding to probes. The positive clones were plaque-purified and tested for IgE binding using sera from grass pollen-allergic subjects. Eighteen clones were selected as encoding proteins recognized by both Lol p I-specific MAbs and IgE antibodies (Table 1). […]"}, "[3]": {"system": "specific IgE from pooled human allergic sera", "assay": "Immunological screening of clone 19R with sera", "assay_type": "binding", "conditions": "plaque purified clone", "excerpt": "Duplicate filters of the cDNA expression library in Example 1 were screened with specific IgE from pooled human allergic sera. The bound IgE was detected using ^125 I-labelled anti-human IgE (Kallestad Laboratories,Chaska, Minn.). The plaques that were antibody-positive on both of the duplicate filters were picked off, purified, and then replated and tested for binding to MAbs."}},
  "data": [
    {"molecule": "Lol p Ib.1: protein encoded by the 12R clone (SEQ ID NO.: 2) (protein) MAVQKYTVALFLAVALVAGPAASYAADAGYTPAAAATPATPAATPAAAGGKATTDEQKLLEDVNAGFKAAVAAAANAPPADKFKIFEAAFSESSKGLLATSAAKAPGLIPKLDTAYDVAYKAAEGATPEAKYDAFVTALTEALRVIAGALEVHAVKPATEEVPAAKIPTGELQIVDKIDAAFKIAATAANAAPTNDKFTVFESAFNKALNECTGGAYETYKFIPSLEAAVKQAYAATVAAAPEVKYAVFEAALTKAITAMTQAQKAGKPAAAAATGAATVATGAATAAAGAATAAAGGYKA", "values": [
      {"measurement": "Affinity of MAb 12.3 (footnote of Table 1, in words)", "setting": "MAb 12.3", "value": "high affinity"},
      {"measurement": "Patients with IgE antibodies reactive to the recombinant allergen", "setting": "[1]", "value": 80, "unit": "%"}
    ]},
    {"molecule": "Clone 12: 1.2 kb cDNA clone lambda-12R; its expressed protein is designated Lol p Ib.1 (protein) MAVQKYTVALFLAVALVAGPAASYAADAGYTPAAAATPATPAATPAAAGGKATTDEQKLLEDVNAGFKAAVAAAANAPPADKFKIFEAAFSESSKGLLATSAAKAPGLIPKLDTAYDVAYKAAEGATPEAKYDAFVTALTEALRVIAGALEVHAVKPATEEVPAAKIPTGELQIVDKIDAAFKIAATAANAAPTNDKFTVFESAFNKALNECTGGAYETYKFIPSLEAAVKQAYAATVAAAPEVKYAVFEAALTKAITAMTQAQKAGKPAAAAATGAATVATGAATAAAGAATAAAGGYKA", "values": [
      {"measurement": "Recognition by all four MAbs used in this study", "setting": "[2]", "value": "recognized"}
    ]},
    {"molecule": "clone 19R: lambda gt 11 cDNA clone encoding Lol p Ib.2 (protein) MAVQKHTVALFLAVALVAGPAASYAADAGYAPATPATPAAPATAATPATPATPATPAAVPSGKATTEEQKLIEKINAGFKAAVAAAAVVPPADKYKTFVETFGTATNKAFVEGLASGYADQSKNQLTSKLDAALKLAYEAAQGATPEAKYDAYVATLTEALRVIAGTLEVHAVKPAAEEVKVGAIPAAEVQLIDKVDAAYRTAATAANAAPANDKFTVFENTFNNAIKVSLGAAYDSYKFIPTLVAAVKQAYAAKQATAPEVKYTVSETALKKAVTAMSEAEKEATPAAAATATPTPAAATATATPAAAYATATPAAATATATPAAATATPAAAGGYKV", "values": [
      {"measurement": "Reaction with non-allergic sera", "setting": "[3]", "value": "not positive"},
      {"measurement": "Binding of specific IgE in sera of ryegrass sensitive patients", "setting": "[3]; pooled allergic sera", "value": "bind specific IgE"}
    ]},
    {"molecule": "Lol p Ib.2: protein encoded by clone 19R (SEQ ID NO.: 4) (protein) MAVQKHTVALFLAVALVAGPAASYAADAGYAPATPATPAAPATAATPATPATPATPAAVPSGKATTEEQKLIEKINAGFKAAVAAAAVVPPADKYKTFVETFGTATNKAFVEGLASGYADQSKNQLTSKLDAALKLAYEAAQGATPEAKYDAYVATLTEALRVIAGTLEVHAVKPAAEEVKVGAIPAAEVQLIDKVDAAYRTAATAANAAPANDKFTVFENTFNNAIKVSLGAAYDSYKFIPTLVAAVKQAYAAKQATAPEVKYTVSETALKKAVTAMSEAEKEATPAAAATATPTPAAATATATPAAAYATATPAAATATATPAAATATPAAAGGYKV", "values": [
      {"measurement": "Patients with IgE antibodies reactive to the recombinant allergen", "setting": "[1]", "value": 80, "unit": "%"}
    ]}
  ]
}
